Results from patent US9533059 (GE HEALTHCARE, dated 2017).
Positions of bridges follow the written chain, without caps; N, C: chain ends.

Biological target: human c-Met receptor (human, UniProt P08581 25-1390)
Test: cell-based or functional assay

Chain of human c-Met receptor (P08581 25-1390): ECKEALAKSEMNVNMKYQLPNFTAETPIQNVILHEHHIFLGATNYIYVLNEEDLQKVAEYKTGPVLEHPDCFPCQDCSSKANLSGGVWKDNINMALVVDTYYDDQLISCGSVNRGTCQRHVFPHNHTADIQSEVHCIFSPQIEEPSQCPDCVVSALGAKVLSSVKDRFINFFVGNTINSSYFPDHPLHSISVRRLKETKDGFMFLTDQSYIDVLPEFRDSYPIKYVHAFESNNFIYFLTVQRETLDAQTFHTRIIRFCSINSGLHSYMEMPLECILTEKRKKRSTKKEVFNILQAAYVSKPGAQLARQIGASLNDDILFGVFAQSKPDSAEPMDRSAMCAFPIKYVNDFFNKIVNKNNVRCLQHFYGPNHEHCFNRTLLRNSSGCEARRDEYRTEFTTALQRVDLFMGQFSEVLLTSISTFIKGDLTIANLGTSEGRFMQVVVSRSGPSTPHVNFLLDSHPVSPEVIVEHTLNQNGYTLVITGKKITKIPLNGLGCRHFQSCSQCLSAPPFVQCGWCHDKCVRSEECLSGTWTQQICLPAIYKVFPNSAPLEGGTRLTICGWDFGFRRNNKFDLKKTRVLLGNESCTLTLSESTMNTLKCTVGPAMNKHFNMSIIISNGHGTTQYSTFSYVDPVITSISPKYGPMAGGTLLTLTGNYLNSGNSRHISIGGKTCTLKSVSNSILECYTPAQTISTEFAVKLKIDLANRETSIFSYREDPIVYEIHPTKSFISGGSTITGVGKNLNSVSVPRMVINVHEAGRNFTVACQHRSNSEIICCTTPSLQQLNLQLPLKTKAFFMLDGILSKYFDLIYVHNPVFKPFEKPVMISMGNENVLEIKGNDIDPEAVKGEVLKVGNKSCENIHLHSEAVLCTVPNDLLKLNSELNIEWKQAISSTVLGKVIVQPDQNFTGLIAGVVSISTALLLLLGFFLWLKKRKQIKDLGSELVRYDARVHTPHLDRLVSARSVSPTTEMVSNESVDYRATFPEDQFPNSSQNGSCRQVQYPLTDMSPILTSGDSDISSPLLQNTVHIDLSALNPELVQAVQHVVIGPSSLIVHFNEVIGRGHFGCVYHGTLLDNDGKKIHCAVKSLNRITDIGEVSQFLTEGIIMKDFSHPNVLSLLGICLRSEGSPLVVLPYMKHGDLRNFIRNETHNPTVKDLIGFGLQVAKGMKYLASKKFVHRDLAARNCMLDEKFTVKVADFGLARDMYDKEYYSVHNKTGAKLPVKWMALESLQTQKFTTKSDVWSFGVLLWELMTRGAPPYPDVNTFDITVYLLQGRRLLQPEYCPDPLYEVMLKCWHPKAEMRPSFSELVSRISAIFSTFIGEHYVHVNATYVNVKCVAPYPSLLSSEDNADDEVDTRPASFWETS

HT-29 tumour uptake of Compound 3B with 1000-fold excess unlabelled peptide: 1.1 % id/g | reduction in HT-29 tumour uptake of Compound 3B with 1000-fold excess unlabelled peptide: 40%
Binder: Ac-AGSCYCSGPPRFECWCYETEGTGGGK(N‑(4-fluorobenzylidene)aminooxyacetyl)-NH2 (disulfide 6-14, 4-16) [Compound 3A]
